Assay results taken from publication PMC3925087.

Target: Hen eggwhite lysozyme (HEWL), control (no iodoacetamide), in 50 mM phosphate buffer at pH 12.2 (hen) (UniProt P00698)
Test: single-molecule force spectroscopy (AFM pulling); HEWL aggregates formed after 4 days of incubation at pH 12.2, 120 uM in 50 mM phosphate buffer, on a gold coated coverslip; pulling speed 400 nm/s

average detachment force: 1000 pN
mechanical stability (detachment peak force): 300 to 2600 pN
Substance: Hen eggwhite lysozyme (HEWL), control (no iodoacetamide), in 50 mM phosphate buffer at pH 12.2 (from UniProt P00698 19-147) (enzyme)
